test: soluble on expression in E. coli; label from the status in PepcDB or PDB records

| Sequence | soluble on expression in E. coli |
| --- | --- |
| MKIAFLFRTSPHGTSISREGLDAILAATAFCEPNDIGIFFIDDGVLNLIDNQQPEIIQQKDFIRTFKLLDLYDVEQRFICTASLQKFKLDNRELILSCEKIDRSLLLEKLNQAGKLFTF | not soluble |
| MKIAIAGAGAMGSRFGLMLKQGGNDVLLIDGWQEHINAIKENGLKANYNGEEITVKVSIVNQNEVPTGEQFDLIILFTKAMQLEKMLQDVKPLIADHTEVLCLLNGIGHEDVIEKFVPMEKIFIGNTMWTAGLEGPGKAKLFGSGSVELQNLGIGQEESAKKLAETLSASGLNAKYSDNIHYSIYRKACVNGTMNGLCTILDVNMAGLGATKPAHDMVVTIVNEFAAVAAKENVNLDIPEVIEHVETCFDPTTIGMHFPSMHQDLIKNNRLTEIDYINGAISRKGKKYGVVTPYCDFLTQLVHSKEEILGAK | not soluble |
| MKIDILTLFPDMFTGVFGSSILKKAQEKEAVELRVVNFRDYTTSKHNSVDDYPYGGGAGMVLTPQPIFDAVEDLTKETERKPRVVLMCPQGERFTQKKAEELAEEEHLIFVCGHYEGYDERIREHLVTDEISIGDYVLTGGELASMVITDSVVRLLPGVLGNHASQVEDSFSTGLLEHPHYTRPADFRGMKVPDVLMSGNHKNIDEWRHKESLRRTYTRRPDLLEERELSKQEKKWLEQIKEGK | not soluble |
| MKIEDIYQFFENPPPTYLCQEVAICYILYVLLQGESYGTELIQQLETEHPTYRLSDTVLYSAIKFLEDNRAITGYWKKLEGRGRPRRMYQVSPEWQHQAEDLARLWQNYIYVRTN | soluble |
| MKIEENMELPVILVTSGVLLPGASLKIPIRSKLNIQTIEKYLTRSSNDNYVVIAYKVSTDKVYEVATIAYVEKLFGWTFNSTVHYSLDVIGLHRANIDKLSLPTCIVSKVVDLNEAISNQNAIEKLVTGAKIIASNSLTDKFSREIYSLIDEKEYGKLADLCVSQMKFLGFMQLLEFLGANGTDARVEMCIKWMNEKKDANTLKLKVPNSLEASFPVDGKKRKIPNVKNQVEQLEEKLNAIEFSDEVSDRVYSELHRLKSMNAQQSEYNILMNWLELVSSLPWNTSTIDDIELHKARTILTESHEAMDDVKERVLEHLAVCKMNNSVKGMILCFTGPPGIGKTSIAKAIAESMGRKFQRVSLGGIRDESDIRGHRRTYVAAMPGRIIEALKTCKTNNPVFLLDEVDKLYSGNQGSPSAALLELLDPEQNSTFHDHYLNIPFDVSKIMFIATANDIDRLEPALRDRLEIIEMSGYSLKEKVKICENHLLTRQLTKHCISHDYVKLERQAIVAMIEEYTMEAGVRQLERNVGAICRNVALRLAEALNSDPGADVLPVMELPIQISASNIHKILKNKHMKRVKIVEKMRPLPAGVCFGLSVTTIGGRVMPIEASKSKGTGKIVTTGHLGKVLKESILVAKGWLSANSERLGLGTLEDQDIHVHLPAGAVNKDGPSAGTGLACALVSLATNIPLRSDAAVTGEISLTGHVLPIGGVKEKVLAAQREGLRRVVLPKSNEEEYLKMDEDIRLEMDVVLAETIEDVIGAMMDKSPVLAKL | not soluble |
| MKIFENIEDVKAIRKKTGLNQIDFWGKVGVTQSGGSRYETGRKMPKPVRELLRLVHIECIDLAKVNKKDMEIAALLKKHHPDLYAELSKQTKSERKKQS | not soluble |
| MKIGDISIHYLNGGNTKMDGGAMFGVVPKPLWSKQYNANERNQINLPTHPILIQTAQYNLIIDAGIGNGKLSEKQLRNFGVDEESHIIADLANYNLTPKDIDYVLMTHMHFDHAAGLTDQAGHAIFENAIHVVQQDEWHEFIAPNIRSKSTYWDKNKGDYSNKLILFEKHFEPVPGIKMQHSGGHSFGHTIITIESQGDKAVHMGDIFPTTAHKNPLWVTAYDDYPMQSIREKERMIPYFIQQQYWFLFYHDENYFAVKYSDDGENIDAYILRETLVDNNLEHHHHHH | soluble |
| MKIGFIGAGKMAQALARGLINSGRITADNIIASSPKRDEVFLDQCKALGLNTTHDNAEVVQKSDVVFLAVKPVHVSKVASEIAPALSKEHLVVSIALGITIRNIESLLPTKSRVVRVMPNTPSVVRAGASAFAMGSACRDGDAETVEKLLSTVGFAVEVPEIHIDPVTGLSGSGPSYMFAVIEGLADGGVKVGLPRDLALKLAAYTLLGAAKMVLETGIHPAQLKDDVQSPAGSSVYGMHKLESGGLKGVLMDAVEAATNRSRATGDKALPRDFRNTEM | not soluble |
| MKIGIIGVGKMASAIIKGLKQTPHELIISGSSLERSKEIAEQLALPYAMSHQDLIDQVDLVILGIKPQLFETVLKPLHFKQPIISMAAGISLQRLATFVGQDLPLLRIMPNMNAQILQSSTALTGNALVSQELQARVRDLTDSFGSTFDISEKDFDTFTALAGSSPAYIYLFIEALAKAGVKNGIPKAKALEIVTQTVLASASNLKTSSQSPHDFIDAICSPGGTTIAGLMELERLGLTATVSSAIDKTIDKAKSL | soluble |
| MKIRIFVPQNKFMNREMLYNDLSGFLAMHFPCKVQKISINAGFTCPNRDGSVGYGGCTYCNNQTFNPAYCHTGKSVAQQLEEGKRFFVRKYPEMKYLAYFQAYTNTYGELEELKRKYEEALMVEDVVGLVIGTRPDCMPISLLDYLEDLGKRTFVLVEYGIESTDDETLRRINRGHTFAVSAEAVRKTAERGILVGGHIILGLPGEEREMLIRQAGVLSQLPLTTLKLHQLQLIKGTRMASEYVKEPEAFHLYTADEYVDLVIDYIEHLRPDIVLERFVSQSPKELLIAPDWGLKNYEFTDKVKKRMREKDAWQGKYYKY | not soluble |
| MKITNPVLKGFNPDPSICRAGEDYYIAVSTFEWFPGVQIHHSKDLVNWHLVAHPLQRVSQLDMKGNPNSGGVWAPCLSYSDGKFWLIYTDVKVVDGAWKDCHNYLVTCETINGDWSEPIKLNSSGFDASLFHDTDGKKYLLNMLWDHRIDRHSFGGIVIQEYSDKEQKLIGKPKVIFEGTDRKLTEAPHLYHIGNYYYLLTAEGGTRYEHAATIARSANIEGPYEVHPDNPILTSWHDPGNPLQKCGHASIVQTHTDEWYLAHLTGRPIHPDDDSIFQQRGYCPLGRETAIQKLYWKDEWPYVVGGKEGSLEVDAPSIPETIFEATYPEVDEFEDSTLNINFQTLRIPFTNELGSLTQAPNHLRLFGHESLTSTFTQAFVARRWQSLHFEAETAVEFYPENFQQAAGLVNYYNTENWTALQVTHDEELGRILELTICDNFSFSQPLNNKIVIPREVKYVYLRVNIEKDKYYYFYSFNKEDWHKIDIALESKKLSDDYIRGGGFFTGAFVGMQCQDTGGNHIPADFRYFRYKEK | soluble |
| MKITREELAVQVDVAQWSWLRAHLERGGLIVVNRGLDLVEVGVSIASDDTAVVGDWIQTGLLAKPSAEQISAWDANEEISFSALIISPYVLIQEQKQ | not soluble |
| MKIVCSKEQLMEGINVVQKAVPTKATLTILEGILLEAYDNFKMTGNDLELGIECLIDADILEKGSIVLNSKMFGDIVRRLPDSEVLIEVKENNTVIIECDNSHFELRGMPSDSFPSLPSIEKENMIKVSQKAIRDMIRQTLFAVSTEGTRPILTGSLIECAGNEITFVSIDGFRMALRKNFNNEGFSEFSVVVPAKTLSEIGKILQPVDEDIYIYSSQNQILFEIGNCKVVSRLLEGEYLNYKSIIPPEYETSVRLRTEDLLSSLERASLITSDEKKYPVKFNIIDDKIIITSNTEIGAVREEIRVEVNGSNMEVGFNPRYFIEALRVIDDELVDIYFNSSVGPCTIRPLEGDSFAYMILPVRINK | soluble |
| MKIVIAPDSFKESLSADKCCQAIKAGFSTVFPDARYVCLPIADGGEGTVDAMVAATGGKRVSVDVSGPMGEKVNGFYGLTGDGKTAIIEMAAASGLMLVAPEARNPLLASSFGTGELIRHALDAGIRHIILGIGGSATVDGGMGVAQALGVRFLDAQGTPLGAGGGNLSRLASIDLQGCDPRISECRIEVACDVDNPLVGPRGAAAVFGPQKGATPEMVETLENGLRNYARVLHALTGRDMSQIPGGGAAGGMGIAAIVFLEAEMKPGIEIVMQAVKLEEAVKEASLVITGEGRIDSQTAGGKAPIGVASVAKRHHVPVIGIAGVLGDGVEVVHRHGIDAVFSILPRLAPLPEVLANGEQNLYHSACNIARVIKLGQDIGTR | not soluble |

— the DeepSol protein solubility set
